From US20260295010 (published 2026)
“And” between values parts separate entries of the source, which are not always exact repeats. Equal values may be shown once. Read-outs that look alike come from different tables or passages of the source.

Tests used:
Assay in all cases: SPR, 25C
IL-12RB2-hFc [1] = target: T1, IL-12RB2-hFc (human, UniProt Q99665)
T1 chain: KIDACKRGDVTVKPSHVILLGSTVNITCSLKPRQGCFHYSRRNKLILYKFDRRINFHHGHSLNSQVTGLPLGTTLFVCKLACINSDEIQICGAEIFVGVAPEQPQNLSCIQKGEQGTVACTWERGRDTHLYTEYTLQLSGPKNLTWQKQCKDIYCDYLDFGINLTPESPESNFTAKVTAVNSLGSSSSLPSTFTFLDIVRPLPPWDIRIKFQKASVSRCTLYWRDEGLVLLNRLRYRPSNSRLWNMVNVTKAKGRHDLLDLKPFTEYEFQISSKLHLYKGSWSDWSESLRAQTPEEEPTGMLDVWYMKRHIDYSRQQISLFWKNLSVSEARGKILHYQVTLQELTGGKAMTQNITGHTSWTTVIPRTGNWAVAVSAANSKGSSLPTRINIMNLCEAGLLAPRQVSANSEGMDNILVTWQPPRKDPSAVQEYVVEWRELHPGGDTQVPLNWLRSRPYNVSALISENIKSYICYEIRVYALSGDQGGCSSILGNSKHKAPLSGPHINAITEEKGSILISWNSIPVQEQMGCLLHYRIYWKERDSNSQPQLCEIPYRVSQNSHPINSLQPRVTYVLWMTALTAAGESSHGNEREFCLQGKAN

IL-12RB1-hFc [2] = target: T2, IL-12RB1-hFc (human, UniProt P42701)
IL-12RB2-hFc [3] = target: T1, IL-12RB2-hFc
IL-12RB1-hFc [4] = target: T2, IL-12RB1-hFc; remark: listed apart in the source
IL-12RB1-hFc [5] = target: T2, IL-12RB1-hFc; remark: listed apart in the source

B1: IL-12p70 K265Y (protein)
chain 1: MIWELKKDVYVVELDWYPDAPGEMVVLTCDTPEEDGITWTLDQSSEVLGSGKTLTIQVKEFGDAGQYTCHKGGEVLSHSLLLLHKKEDGIWSTDILKDQKEPKNKTFLRCEAKNYSGRFTCWWLTTISTDLTFSVKSSRGSSDPQGVTCGAATLSAERVRGDNKEYEYSVECQEDSACPAAEESLPIEVMVDAVHKLKYENYTSSFFIRDIIKPDPPKNLQLKPLKNSRQVEVSWEYPDTWSTPHSYFSLTFSVQVQGKSKREKYDRVFTDKTSATVICRKNASISVRAQDRYYSSSWSEWASVPCSGGGSHHHHHH
chain 2: MRNLPVATPDPGMFPSLHHSQNLLRAVSNMLQKARQTLEFYPCTSEEIDHEDITKDKTSTVEACLPLELTKNESCLNSRETSFITNGSSLASRKTSFMMALCLSSIYEDLKMYQVEFKTMNAKLLMDPKRQIFLDQNMLAVIDELMQALNFNSETVPQKSSLEEPDFYKTKIKLCILLHAFRIRAVTIDRVMSYLNAS
IL-12RB2-hFc [1]
  Kd: 4.9 nM
IL-12RB1-hFc [2]
  Kd: 0.51 nM
IL-12RB2-hFc [3]
  Kd: 1.6 nM
IL-12RB1-hFc [4]
  Kd: 0.11 nM

B2: IL-12p70 D94K (protein)
chain 1: MIWELKKDVYVVELDWYPDAPGEMVVLTCDTPEEDGITWTLDQSSEVLGSGKTLTIQVKEFGDAGQYTCHKGGEVLSHSLLLLHKKEDGIWSTKILKDQKEPKNKTFLRCEAKNYSGRFTCWWLTTISTDLTFSVKSSRGSSDPQGVTCGAATLSAERVRGDNKEYEYSVECQEDSACPAAEESLPIEVMVDAVHKLKYENYTSSFFIRDIIKPDPPKNLQLKPLKNSRQVEVSWEYPDTWSTPHSYFSLTFSVQVQGKSKREKKDRVFTDKTSATVICRKNASISVRAQDRYYSSSWSEWASVPCSGGGSHHHHHH
chain 2: MRNLPVATPDPGMFPSLHHSQNLLRAVSNMLQKARQTLEFYPCTSEEIDHEDITKDKTSTVEACLPLELTKNESCLNSRETSFITNGSSLASRKTSFMMALCLSSIYEDLKMYQVEFKTMNAKLLMDPKRQIFLDQNMLAVIDELMQALNFNSETVPQKSSLEEPDFYKTKIKLCILLHAFRIRAVTIDRVMSYLNAS
IL-12RB2-hFc [1]
  Kd: 1.9 nM
IL-12RB1-hFc [2]
  Kd: 0.44 nM
IL-12RB2-hFc [3]
  Kd: 1.2 nM
IL-12RB1-hFc [4]
  Kd: 0.75 nM

B3: IL-12p70 E87K,K196E,K198E (protein)
chain 1: MIWELKKDVYVVELDWYPDAPGEMVVLTCDTPEEDGITWTLDQSSEVLGSGKTLTIQVKEFGDAGQYTCHKGGEVLSHSLLLLHKKKDGIWSTDILKDQKEPKNKTFLRCEAKNYSGRFTCWWLTTISTDLTFSVKSSRGSSDPQGVTCGAATLSAERVRGDNKEYEYSVECQEDSACPAAEESLPIEVMVDAVHELEYENYTSSFFIRDIIKPDPPKNLQLKPLKNSRQVEVSWEYPDTWSTPHSYFSLTFSVQVQGKSKREKKDRVFTDKTSATVICRKNASISVRAQDRYYSSSWSEWASVPCSGGGSHHHHHH
chain 2: MRNLPVATPDPGMFPSLHHSQNLLRAVSNMLQKARQTLEFYPCTSEEIDHEDITKDKTSTVEACLPLELTKNESCLNSRETSFITNGSSLASRKTSFMMALCLSSIYEDLKMYQVEFKTMNAKLLMDPKRQIFLDQNMLAVIDELMQALNFNSETVPQKSSLEEPDFYKTKIKLCILLHAFRIRAVTIDRVMSYLNAS
IL-12RB1-hFc [5]
  koff: 0.0705 s⁻¹
IL-12RB2-hFc [3]
  Kd: 0.61 nM

B4: IL-12p70 K259Y (protein)
chain 1: MIWELKKDVYVVELDWYPDAPGEMVVLTCDTPEEDGITWTLDQSSEVLGSGKTLTIQVKEFGDAGQYTCHKGGEVLSHSLLLLHKKEDGIWSTDILKDQKEPKNKTFLRCEAKNYSGRFTCWWLTTISTDLTFSVKSSRGSSDPQGVTCGAATLSAERVRGDNKEYEYSVECQEDSACPAAEESLPIEVMVDAVHKLKYENYTSSFFIRDIIKPDPPKNLQLKPLKNSRQVEVSWEYPDTWSTPHSYFSLTFSVQVQGYSKREKKDRVFTDKTSATVICRKNASISVRAQDRYYSSSWSEWASVPCSGGGSHHHHHH
chain 2: MRNLPVATPDPGMFPSLHHSQNLLRAVSNMLQKARQTLEFYPCTSEEIDHEDITKDKTSTVEACLPLELTKNESCLNSRETSFITNGSSLASRKTSFMMALCLSSIYEDLKMYQVEFKTMNAKLLMDPKRQIFLDQNMLAVIDELMQALNFNSETVPQKSSLEEPDFYKTKIKLCILLHAFRIRAVTIDRVMSYLNAS
IL-12RB2-hFc [1]
  Kd: 4 nM
IL-12RB1-hFc [2]
  Kd: 0.87 nM
IL-12RB2-hFc [3]
  Kd: 1.1 nM
IL-12RB1-hFc [4]
  Kd: 0.08 nM

B5: IL-12p70 p40-HIS6_C253S / p35_C16S_C89S (protein)
chain 1: MIWELKKDVYVVELDWYPDAPGEMVVLTCDTPEEDGITWTLDQSSEVLGSGKTLTIQVKEFGDAGQYTCHKGGEVLSHSLLLLHKKEDGIWSTDILKDQKEPKNKTFLRCEAKNYSGRFTCWWLTTISTDLTFSVKSSRGSSDPQGVTCGAATLSAERVRGDNKEYEYSVECQEDSACPAAEESLPIEVMVDAVHKLKYENYTSSFFIRDIIKPDPPKNLQLKPLKNSRQVEVSWEYPDTWSTPHSYFSLTFSVQVQGKSKREKKDRVFTDKTSATVICRKNASISVRAQDRYYSSSWSEWASVPCSGGGSHHHHHH
chain 2: MRNLPVATPDPGMFPSLHHSQNLLRAVSNMLQKARQTLEFYPCTSEEIDHEDITKDKTSTVEACLPLELTKNESCLNSRETSFITNGSSLASRKTSFMMALCLSSIYEDLKMYQVEFKTMNAKLLMDPKRQIFLDQNMLAVIDELMQALNFNSETVPQKSSLEEPDFYKTKIKLCILLHAFRIRAVTIDRVMSYLNAS
IL-12RB2-hFc [1]
  Kd: 2.5 nM and 2.4 nM
IL-12RB1-hFc [2]
  Kd: 0.3 nM and 0.11 nM
IL-12RB2-hFc [3]
  Kd: 0.75 nM and 0.34 nM
IL-12RB1-hFc [4]
  Kd: 0.04 nM

B6: IL-12p70 K196E (protein)
chain 1: MIWELKKDVYVVELDWYPDAPGEMVVLTCDTPEEDGITWTLDQSSEVLGSGKTLTIQVKEFGDAGQYTCHKGGEVLSHSLLLLHKKEDGIWSTDILKDQKEPKNKTFLRCEAKNYSGRFTCWWLTTISTDLTFSVKSSRGSSDPQGVTCGAATLSAERVRGDNKEYEYSVECQEDSACPAAEESLPIEVMVDAVHELKYENYTSSFFIRDIIKPDPPKNLQLKPLKNSRQVEVSWEYPDTWSTPHSYFSLTFSVQVQGKSKREKKDRVFTDKTSATVICRKNASISVRAQDRYYSSSWSEWASVPCSGGGSHHHHHH
chain 2: MRNLPVATPDPGMFPSLHHSQNLLRAVSNMLQKARQTLEFYPCTSEEIDHEDITKDKTSTVEACLPLELTKNESCLNSRETSFITNGSSLASRKTSFMMALCLSSIYEDLKMYQVEFKTMNAKLLMDPKRQIFLDQNMLAVIDELMQALNFNSETVPQKSSLEEPDFYKTKIKLCILLHAFRIRAVTIDRVMSYLNAS
IL-12RB2-hFc [1]
  Kd: 2.7 nM
IL-12RB1-hFc [2]
  Kd: 0.7 nM
IL-12RB2-hFc [3]
  Kd: 0.42 nM
IL-12RB1-hFc [4]
  Kd: 0.15 nM

B7: IL-12p70 K105E (protein)
chain 1: MIWELKKDVYVVELDWYPDAPGEMVVLTCDTPEEDGITWTLDQSSEVLGSGKTLTIQVKEFGDAGQYTCHKGGEVLSHSLLLLHKKEDGIWSTDILKDQKEPKNETFLRCEAKNYSGRFTCWWLTTISTDLTFSVKSSRGSSDPQGVTCGAATLSAERVRGDNKEYEYSVECQEDSACPAAEESLPIEVMVDAVHKLKYENYTSSFFIRDIIKPDPPKNLQLKPLKNSRQVEVSWEYPDTWSTPHSYFSLTFSVQVQGKSKREKKDRVFTDKTSATVICRKNASISVRAQDRYYSSSWSEWASVPCSGGGSHHHHHH
chain 2: MRNLPVATPDPGMFPSLHHSQNLLRAVSNMLQKARQTLEFYPCTSEEIDHEDITKDKTSTVEACLPLELTKNESCLNSRETSFITNGSSLASRKTSFMMALCLSSIYEDLKMYQVEFKTMNAKLLMDPKRQIFLDQNMLAVIDELMQALNFNSETVPQKSSLEEPDFYKTKIKLCILLHAFRIRAVTIDRVMSYLNAS
IL-12RB2-hFc [1]
  Kd: 1.1 nM
IL-12RB1-hFc [2]
  Kd: 0.5 nM
IL-12RB2-hFc [3]
  Kd: 0.56 nM
IL-12RB1-hFc [4]
  Kd: 0.13 nM

B8: IL-12p70 W16A (protein)
chain 1: MIWELKKDVYVVELDAYPDAPGEMVVLTCDTPEEDGITWTLDQSSEVLGSGKTLTIQVKEFGDAGQYTCHKGGEVLSHSLLLLHKKEDGIWSTDILKDQKEPKNKTFLRCEAKNYSGRFTCWWLTTISTDLTFSVKSSRGSSDPQGVTCGAATLSAERVRGDNKEYEYSVECQEDSACPAAEESLPIEVMVDAVHKLKYENYTSSFFIRDIIKPDPPKNLQLKPLKNSRQVEVSWEYPDTWSTPHSYFSLTFSVQVQGKSKREKKDRVFTDKTSATVICRKNASISVRAQDRYYSSSWSEWASVPCSGGGSHHHHHH
chain 2: MRNLPVATPDPGMFPSLHHSQNLLRAVSNMLQKARQTLEFYPCTSEEIDHEDITKDKTSTVEACLPLELTKNESCLNSRETSFITNGSSLASRKTSFMMALCLSSIYEDLKMYQVEFKTMNAKLLMDPKRQIFLDQNMLAVIDELMQALNFNSETVPQKSSLEEPDFYKTKIKLCILLHAFRIRAVTIDRVMSYLNAS
IL-12RB2-hFc [1]
  Kd: 16 nM
IL-12RB1-hFc [5]
  koff: 0.049 s⁻¹
IL-12RB2-hFc [3]
  Kd: 0.62 nM

B9: IL-12p70 L197A (protein)
chain 1: MIWELKKDVYVVELDWYPDAPGEMVVLTCDTPEEDGITWTLDQSSEVLGSGKTLTIQVKEFGDAGQYTCHKGGEVLSHSLLLLHKKEDGIWSTDILKDQKEPKNKTFLRCEAKNYSGRFTCWWLTTISTDLTFSVKSSRGSSDPQGVTCGAATLSAERVRGDNKEYEYSVECQEDSACPAAEESLPIEVMVDAVHKAKYENYTSSFFIRDIIKPDPPKNLQLKPLKNSRQVEVSWEYPDTWSTPHSYFSLTFSVQVQGKSKREKKDRVFTDKTSATVICRKNASISVRAQDRYYSSSWSEWASVPCSGGGSHHHHHH
chain 2: MRNLPVATPDPGMFPSLHHSQNLLRAVSNMLQKARQTLEFYPCTSEEIDHEDITKDKTSTVEACLPLELTKNESCLNSRETSFITNGSSLASRKTSFMMALCLSSIYEDLKMYQVEFKTMNAKLLMDPKRQIFLDQNMLAVIDELMQALNFNSETVPQKSSLEEPDFYKTKIKLCILLHAFRIRAVTIDRVMSYLNAS
IL-12RB2-hFc [1]
  Kd: 2.3 nM
IL-12RB1-hFc [2]
  Kd: 0.31 nM
IL-12RB2-hFc [3]
  Kd: 0.55 nM
IL-12RB1-hFc [4]
  Kd: 0.05 nM
